Substitutions are numbered along the chain they refer to. In names and notes the source's numbering stands.
Columns and labels:
[1] = biological target: T1, recombinant human PD-1 protein (NCBI accession No.: NP_005009.2, 21aa-167aa) (human, UniProt Q15116 21-167); experiment: BLI Octet QKe, antibody on the sensor, single 100 nM PD-1
T1 construct: range 21-167; also called recombinant human PD-1 extracellular domain protein; PD-1-ECD
Method: Determination of the binding kinetics: the affinity of the antibody was determined with Octet QKe system from Fortebio using an assay of capturing biotin-labeled antibody with streptavidin. […] Both the binding and dissociating were conducted for 300 s.
The comparison of affinity between the variant antibodies and the parent antibody was performed using Octet QKe system supplied by Fortebio.

[2] = biological target: T2, rat PD-1 (Cat: 80448-R08H, Sino Biological Inc.) (rat, UniProt D3ZIN8 25-169); experiment: ELISA, plate coated with the PD-1 protein at 1 µg/mL, hybridoma supernatant diluted 100 times
T2 construct: Bought recombinant protein; also called recombinant rat PD-1; not shown: The vendor's tag
T2 sequence: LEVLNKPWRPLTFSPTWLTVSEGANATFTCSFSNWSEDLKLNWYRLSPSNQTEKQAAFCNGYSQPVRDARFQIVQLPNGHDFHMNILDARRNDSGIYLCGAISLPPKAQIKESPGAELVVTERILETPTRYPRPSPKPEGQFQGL
Method: (§1) A plate was coated with recombinant human PD-1/His protein (NCBI accession No.: NP_005009.2, 21aa-167aa, Lot: 2016.2.22), cynomolgus monkey PD-1 (Cat: 90311-C08H, Sino Biological Inc.), rat PD-1 (Cat: 80448-R08H, Sino Biological Inc.) and mouse PD-1 (Cat: 50124-M08H, Sino Biological Inc.) in a concentration of 1 μg/mL overnight at 4° C., washed three times with PBS subsequently, and 5% BSA-PBS was added for blocking for 60 min at 37° C. The plate was washed three times with PBST afterwards, and supernatants of the hybridiomas diluted 100 times were added and incubated for 60 min at 37° C. Again, the plate was washed four times with PBST, HRP-Goat anti-mouse IgG (Fcγ) (Cat: 115-035-071, Jackson Immuno Research) with a dilution of 1:5000 was added for a 30 min incubation at 37° C. Once again, the plate was washed four times with PBST, and TMB substrate was added for developing color through incubating for 10 min at 37° C., then the reaction was terminated by adding 2 M HCl. With 630 nm as reference wavelength, the absorbance at 450 nm (A450 nm-630 nm) of each well in the plate was read and recorded.

[3] = biological target: T3, cynomolgus monkey PD-1 (Cat: 90311-C08H, Sino Biological Inc.) (cynomolgus monkey, UniProt B0LAJ3 25-170); experiment: as above
T3 construct: Bought recombinant protein; not shown: The vendor's tag
Method: as §1

[4] = biological target: T4, mouse PD-1 (Cat: 50124-M08H, Sino Biological Inc.) (mouse, UniProt Q02242 25-167); experiment: as above
T4 construct: Bought recombinant protein; also called recombinant mouse PD-1
T4 sequence (looked up): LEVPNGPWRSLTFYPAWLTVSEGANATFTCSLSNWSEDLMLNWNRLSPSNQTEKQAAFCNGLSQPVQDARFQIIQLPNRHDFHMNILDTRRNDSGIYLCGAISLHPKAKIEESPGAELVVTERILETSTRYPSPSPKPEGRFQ
Method: as §1

[5] = biological target: T5, recombinant human PD-1/His protein (NCBI accession No.: NP_005009.2, 21aa-167aa, Lot: 2016.2.22) (human, UniProt Q15116 21-167); experiment: BLI (Fortebio BLITZ), antibody captured on AHC sensor, PD-1-His in solution
T5 construct: range 21-167; also called recombinant human PD-1 extracellular domain protein; not shown: His tag
Method: The light chain variable region gene and heavy chain variable region gene of the monoclonal antibody obtained through cloning, with cleavage sites of restriction enzymes introduced by PCR using the following primers (Table 3), were respectively cloned into the upstream of gene encoding human-kappa light chain constant region and the upstream of gene encoding the human IgG4 heavy chain constant region carried in eukaryotic expression vectors. […] The affinity of the antibody was determined by the anti-human antibody capture assay with Fortebio (BLITZ pro1.1.0.28). For the determination, anti-Human IgG Fc Capture (AHC) biosensors were soaked in PBS for 10 min. […] Subsequently, the AHC biosensors were reacted with the diluted recombinant human PD-1-His protein (NCBI accession No.: NP_005009.2, 21aa-167aa, Lot: 2016.2.22) of different concentrations (1 μM, 0.6 μM and 0 nM) for binding for 45 s, and was then transferred into PBS for dissociating for 120 s.

T5 sequence (Q15116 21-167 limits assumed, form in doubt): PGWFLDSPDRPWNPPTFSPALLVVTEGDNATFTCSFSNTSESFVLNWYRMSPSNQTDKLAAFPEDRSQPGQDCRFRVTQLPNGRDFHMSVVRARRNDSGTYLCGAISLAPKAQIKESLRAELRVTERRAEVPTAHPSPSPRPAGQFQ
T1 sequence (Q15116 21-167 limits assumed, form in doubt): as above
T3 sequence (B0LAJ3 entry or part of it C08H C08H limits assumed): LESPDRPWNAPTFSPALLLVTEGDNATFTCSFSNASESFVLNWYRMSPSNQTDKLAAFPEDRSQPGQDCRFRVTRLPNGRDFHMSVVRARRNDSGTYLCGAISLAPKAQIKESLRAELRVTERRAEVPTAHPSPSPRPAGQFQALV

B1: h317 variant antibody, light chain T56S and S92N (antibody, V domains shown)
VH: EVQLVESGGGLVKPGGSLRLSCAASGFTFSSYDMSWVRQAPGKGLEWVATISGGGSYTYYPDSVKGRFTISRDNAKNSLYLQMNSLRAEDTAVYYCASPDSSGVAYWGQGTLVTVSS
VL: DIVMTQSPLSLPVTPGEPASITCKASQDVETVVAWYLQKPGQSPRLLIYWASTRHSGVPDRFSGSGSGTDFTLKISRVEAEDVGVYYCQQYNRYPWTFGQGTKL
notes: Variant of h317; also called 56S(CDR2) 92N(CDR3)
Which Kd [1] does the source give for B1 here?
The Kd was 3.98 nM.

B2: h317 variant antibody, light chain Y91A (antibody, V domains shown)
VH: B1 VH
VL: B1 VL with S56T, Y91A, N92S
notes: Variant of h317
B2 was tested. Which Kd [1] did it give?
The Kd was 51.2 nM.

B3: h317 variant antibody, light chain Y94F (antibody, V domains shown)
VH: B1 VH
VL: B1 VL with S56T, N92S, Y94F
notes: Variant of h317
Which Kd [1] does the source give for B3 here?
Its Kd is 6.81 nM.

B4: h317 variant antibody, light chain W50G (antibody, V domains shown)
VH: B1 VH
VL: B1 VL with W50G, S56T, N92S
notes: Variant of h317
With B4 as the binder, how does the Kd [1] read?
Its Kd is 61.4 nM.

B5: h317 variant antibody, light chain W96Y (antibody, V domains shown)
VH: B1 VH
VL: B1 VL with S56T, N92S, W96Y
notes: Variant of h317
How did the Kd [1] turn out when B5 was run?
Its Kd is 412 nM.

B6: h317 variant antibody, light chain W50A (antibody, V domains shown)
VH: B1 VH
VL: B1 VL with W50A, S56T, N92S
notes: Variant of h317
B6 was tested. Which Kd [1] did it give?
Its Kd is 12.3 nM.

B7: h317 variant antibody, light chain V32A (antibody, V domains shown)
VH: B1 VH
VL: B1 VL with V32A, S56T, N92S
notes: Variant of h317
B7 was tested. Which Kd [1] did it give?
Its Kd is 6.21 nM.

B8: h317 variant antibody, light chain W96G (antibody, V domains shown)
VH: B1 VH
VL: B1 VL with S56T, N92S, W96G
notes: Variant of h317
How did the Kd [1] turn out when B8 was run?
The Kd was 15.3 nM.

B9: h317 variant antibody, light chain V32Y (antibody, V domains shown)
VH: B1 VH
VL: B1 VL with V32Y, S56T, N92S
notes: Variant of h317
With B9 as the binder, how does the Kd [1] read?
Its Kd is 9.81 nM.

B10: h317 variant antibody, light chain Y91F (antibody, V domains shown)
VH: B1 VH
VL: B1 VL with S56T, Y91F, N92S
notes: Variant of h317
How did the Kd [1] turn out when B10 was run?
Its Kd is 47.6 nM.

B11: Clone 317 (murine antibody 317, hybridoma supernatant) (antibody, mouse IgG1, V domains shown)
VH: EVKLVESGGGLMKPGGSLKLSCAASGFTFSSYDMSWVRQTPEKRLEWVATISGGGSYTYYPDSVKGRFTISRDNAKNNLYLQMSSLRSEDTALYYCASPDSSGVAYWGQGTLVTVSA
VL: DIVMTQSHKFMSTSVGDRVSITCKASQDVETVVAWYQQKPGQSPKLLIYWASTRHTGVPDRFTGSGSGTDFTLTISNVQSEDLADYFCQQYSRYPWTFGGGTKL
notes: tested as hybridoma supernatant
Does B11 bind [2]?
Result: no binding (tested: single dilution, no concentration shown)

Does B11 bind [3]?
Result: binds

Does B11 bind [4]?
Result: no binding (tested: single dilution, no concentration shown)

B12: chimeric antibody 317 (antibody, V domains shown)
VH: B11 VH
VL: B11 VL
With B12 as the binder, how does the Kd [5] read?
The Kd was 2.64 nM.

And the koff [5]?
The koff was 0.000566 s⁻¹.

And the kon [5]?
Its kon is 215000 M⁻¹ s⁻¹.
